From the RNAGym collection of RNA variant scans (doi:10.1021/acssynbio.7b00057)

B1: Pistol ribozyme (parent)
chain: GGGUCGUUGUUCCAUAAUCGCGUGGAUAUGGCACGCAAGUUUCUACCGGGCACCGUAAAUGUCCGACUGGAGCCGUUCGGGCGGCUAUAAACAGACCUCAGGCCCGAAGCGUGGCGGCACCUGCCGCCGGUGGUAAAAAAGAUCGGAAGAGCACACGUCU

Variants of: B1
Assay: aptazyme ON/OFF ratio, guanine; higher = stronger switching; co-transcriptional cleavage with and without guanine

Row | Variant | aptazyme ON/OFF ratio
1 | GGGUCGGGAGAACAUAAUCGCGUGGAUAUGGCACGCAAGUUUCUACCGGGCACCGUAAAUGUCCGACUGGAGCCGUUCGGGCGGCUAUAAACAGACCUCAGGCCCGAAGCGUGGCGGCACCUGCCGCCGGUGGUAAAAAAGAUCGGAAGAGCACACGUCU [U7G U8G G9A U10G U11A C12A] | 1.07
2 | GGGUCGGGAGAUCAUAAUCGCGUGGAUAUGGCACGCAAGUUUCUACCGGGCACCGUAAAUGUCCGACUGGAGCCGUUCGGGCGGCUAUAAACAGACCUCAGGCCCGAAGCGUGGCGGCACCUGCCGCCGGUGGUAAAAAAGAUCGGAAGAGCACACGUCU [U7G U8G G9A U10G U11A C12U] | 1.13
3 | GGGUCGGGAGAGAAUAAUCGCGUGGAUAUGGCACGCAAGUUUCUACCGGGCACCGUAAAUGUCCGACUGGAGCCGUUCGGGCGGCUAUAAACAGACCUCAGGCCCGAAGCGUGGCGGCACCUGCCGCCGGUGGUAAAAAAGAUCGGAAGAGCACACGUCU [U7G U8G G9A U10G U11A C12G C13A] | 1.13
4 | GGGUCGGGAGAGGAUAAUCGCGUGGAUAUGGCACGCAAGUUUCUACCGGGCACCGUAAAUGUCCGACUGGAGCCGUUCGGGCGGCUAUAAACAGACCUCAGGCCCGAAGCGUGGCGGCACCUGCCGCCGGUGGUAAAAAAGAUCGGAAGAGCACACGUCU [U7G U8G G9A U10G U11A C12G C13G] | 1.18
5 | GGGUCGGGAGAGUAUAAUCGCGUGGAUAUGGCACGCAAGUUUCUACCGGGCACCGUAAAUGUCCGACUGGAGCCGUUCGGGCGGCUAUAAACAGACCUCAGGCCCGAAGCGUGGCGGCACCUGCCGCCGGUGGUAAAAAAGAUCGGAAGAGCACACGUCU [U7G U8G G9A U10G U11A C12G C13U] | 1.26
6 | GGGUCGGGAGUCUAUAAUCGCGUGGAUAUGGCACGCAAGUUUCUACCGGGCACCGUAAAUGUCCGACUGGAGCCGUUCGGGCGGCUAUAAACAGACCUCAGGCCCGAAGCGUGGCGGCACCUGCCGCCGGUGGUAAAAAAGAUCGGAAGAGCACACGUCU [U7G U8G G9A U10G C13U] | 1.27
7 | GGGUCGGGAGUCAAUAAUCGCGUGGAUAUGGCACGCAAGUUUCUACCGGGCACCGUAAAUGUCCGACUGGAGCCGUUCGGGCGGCUAUAAACAGACCUCAGGCCCGAAGCGUGGCGGCACCUGCCGCCGGUGGUAAAAAAGAUCGGAAGAGCACACGUCU [U7G U8G G9A U10G C13A] | 1.39
8 | GGGUCGGGAGUCGAUAAUCGCGUGGAUAUGGCACGCAAGUUUCUACCGGGCACCGUAAAUGUCCGACUGGAGCCGUUCGGGCGGCUAUAAACAGACCUCAGGCCCGAAGCGUGGCGGCACCUGCCGCCGGUGGUAAAAAAGAUCGGAAGAGCACACGUCU [U7G U8G G9A U10G C13G] | 1.11
9 | GGGUCGGGAGCAAAUAAUCGCGUGGAUAUGGCACGCAAGUUUCUACCGGGCACCGUAAAUGUCCGACUGGAGCCGUUCGGGCGGCUAUAAACAGACCUCAGGCCCGAAGCGUGGCGGCACCUGCCGCCGGUGGUAAAAAAGAUCGGAAGAGCACACGUCU [U7G U8G G9A U10G U11C C12A C13A] | 1.17
10 | GGGUCGGGAGCAUAUAAUCGCGUGGAUAUGGCACGCAAGUUUCUACCGGGCACCGUAAAUGUCCGACUGGAGCCGUUCGGGCGGCUAUAAACAGACCUCAGGCCCGAAGCGUGGCGGCACCUGCCGCCGGUGGUAAAAAAGAUCGGAAGAGCACACGUCU [U7G U8G G9A U10G U11C C12A C13U] | 1.27
11 | GGGUCGGGAGCAGAUAAUCGCGUGGAUAUGGCACGCAAGUUUCUACCGGGCACCGUAAAUGUCCGACUGGAGCCGUUCGGGCGGCUAUAAACAGACCUCAGGCCCGAAGCGUGGCGGCACCUGCCGCCGGUGGUAAAAAAGAUCGGAAGAGCACACGUCU [U7G U8G G9A U10G U11C C12A C13G] | 1.15
12 | GGGUCGGGAGAUAAUAAUCGCGUGGAUAUGGCACGCAAGUUUCUACCGGGCACCGUAAAUGUCCGACUGGAGCCGUUCGGGCGGCUAUAAACAGACCUCAGGCCCGAAGCGUGGCGGCACCUGCCGCCGGUGGUAAAAAAGAUCGGAAGAGCACACGUCU [U7G U8G G9A U10G U11A C12U C13A] | 1.15
13 | GGGUCGGGAGAUGAUAAUCGCGUGGAUAUGGCACGCAAGUUUCUACCGGGCACCGUAAAUGUCCGACUGGAGCCGUUCGGGCGGCUAUAAACAGACCUCAGGCCCGAAGCGUGGCGGCACCUGCCGCCGGUGGUAAAAAAGAUCGGAAGAGCACACGUCU [U7G U8G G9A U10G U11A C12U C13G] | 1.21
14 | GGGUCGGGAGAUUAUAAUCGCGUGGAUAUGGCACGCAAGUUUCUACCGGGCACCGUAAAUGUCCGACUGGAGCCGUUCGGGCGGCUAUAAACAGACCUCAGGCCCGAAGCGUGGCGGCACCUGCCGCCGGUGGUAAAAAAGAUCGGAAGAGCACACGUCU [U7G U8G G9A U10G U11A C12U C13U] | 1.07
15 | GGGUCGGGAGCACAUAAUCGCGUGGAUAUGGCACGCAAGUUUCUACCGGGCACCGUAAAUGUCCGACUGGAGCCGUUCGGGCGGCUAUAAACAGACCUCAGGCCCGAAGCGUGGCGGCACCUGCCGCCGGUGGUAAAAAAGAUCGGAAGAGCACACGUCU [U7G U8G G9A U10G U11C C12A] | 1.4
16 | GGGUCGGGAGUUAAUAAUCGCGUGGAUAUGGCACGCAAGUUUCUACCGGGCACCGUAAAUGUCCGACUGGAGCCGUUCGGGCGGCUAUAAACAGACCUCAGGCCCGAAGCGUGGCGGCACCUGCCGCCGGUGGUAAAAAAGAUCGGAAGAGCACACGUCU [U7G U8G G9A U10G C12U C13A] | 1.25
17 | GGGUCGGGAGUUGAUAAUCGCGUGGAUAUGGCACGCAAGUUUCUACCGGGCACCGUAAAUGUCCGACUGGAGCCGUUCGGGCGGCUAUAAACAGACCUCAGGCCCGAAGCGUGGCGGCACCUGCCGCCGGUGGUAAAAAAGAUCGGAAGAGCACACGUCU [U7G U8G G9A U10G C12U C13G] | 1.31
18 | GGGUCGGGAGUUUAUAAUCGCGUGGAUAUGGCACGCAAGUUUCUACCGGGCACCGUAAAUGUCCGACUGGAGCCGUUCGGGCGGCUAUAAACAGACCUCAGGCCCGAAGCGUGGCGGCACCUGCCGCCGGUGGUAAAAAAGAUCGGAAGAGCACACGUCU [U7G U8G G9A U10G C12U C13U] | 1.17
